Test results as given in the supplement of paper PMC6757056.
± gives the standard deviation of the averaged measurements.

B1: library; a variant is named by its letters at N, in order (parent)
chain: GCUGUCACCGGUGCUUGGUACGUUAUAUUCAGCCGGUCUGAUGAGUCUNNNNNNAGACGAAACAGC

Experiments:
[1] = variants of: B1; assay: FACS-Seq fitted mean relative fluorescence mCherry/BFP without ligand (log10 relative fluorescence); HEK293T overexpressing SLC46A1; higher = higher reporter protein expression; details: without (6R,S)-folinic acid; ligand present: no
How it was run: (§1)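 Fluorescence is reported as a normalized fitted mean of sorted-bin read counts. Lentivirally transduced HEK293T libraries (mCherry ribozyme-switch reporter, EF1α-BFP marker) were enriched, treated with or without ligand for 48 h, and sorted into 6 mCherry/BFP bins for MiSeq sequencing of PCR-amplified genomic DNA. The normal fit was on log10(mCherry/BFP), scaled to five spiked-in control ribozymes.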

[2] = variants of: B1; assay: normalized RNA/DNA level without ligand (relative to sTRSVctl = 100) (log10 (% of sTRSVctl)); HEK293T overexpressing SLC46A1; higher = less ribozyme self-cleavage, higher mRNA level; details: without (6R,S)-folinic acid; ligand present: no
Protocol: (§2)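 Hammerhead (sTRSV) ribozyme switch libraries with a ligand aptamer grafted on stem I and a randomized N4-6 loop II, cloned into the 3' UTR of mCherry and transiently transfected into HEK293T cells; RNA-Seq 72 h post transfection with ligand added 1 h before transfection; RNA read count / plasmid DNA read count normalized to the non-cleaving sTRSVctl (x100), log10; sequences with >100 DNA reads. FACS-Seq: lentiviral library sorted into 6 bins after 48 h ligand, log-normal fit mean of mCherry/BFP scaled to controls. Printed sequences are partial switch sequences.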

[3] = variants of: B1; assay: FACS-Seq fitted mean relative fluorescence mCherry/BFP with ligand (log10 relative fluorescence); HEK293T overexpressing SLC46A1; ligand concentration (+) FACS-Seq: 6 mM; higher = higher reporter protein expression; details: with (6R,S)-folinic acid; ligand present: yes
How it was run: as §1

[4] = variants of: B1; assay: normalized RNA/DNA level with ligand (relative to sTRSVctl = 100) (log10 (% of sTRSVctl)); HEK293T overexpressing SLC46A1; ligand concentration (+) RNA-Seq: 6 mM; higher = less ribozyme self-cleavage, higher mRNA level; details: with (6R,S)-folinic acid; ligand present: yes
Protocol: as §2

Variant	FACS-Seq fitted mean (log10) [1]	normalized RNA/DNA level without ligand (log10) [2]	FACS-Seq fitted mean (log10) [3]	normalized RNA/DNA level with ligand (log10) [4]
GGAGCC	0.129 ± 0.011	2.0238 ± 0.0014	0.0129 ± 0.069	2.026 ± 0.02
CCUCCA	0.578 ± 0.057	2.02 ± 0.031	0.469 ± 0.016	2.04 ± 0.027
UCUUUU	0.427 ± 0.12	2.005 ± 0.0088	0.26 ± 0.18	2.027 ± 0.013
UCUGUU	0.459 ± 0.039	2.02 ± 0.03	0.679 ± 0.29	2.0647 ± 0.00045
AGAGCU	0.596 ± 0.05	2.019 ± 0.006	0.275 ± 0.32	2.01 ± 0.029
GGAAGA	0.0463 ± 0.13	1.993 ± 0.0044	0.239 ± 0.2	2.04 ± 0.031
CCUGAU	-0.195 ± 0.23	2.02 ± 0.024	-0.196 ± 0.058	2.05 ± 0.028
UGAGGA	0.309 ± 0.047	1.839 ± 0.0062	0.598 ± 0.2	1.99 ± 0.031
UGAGGG	0.114 ± 0.058	1.657 ± 0.016	0.587 ± 0.016	1.95 ± 0.063
GGACAA	0.352 ± 0.14	1.98 ± 0.0036	0.748 ± 0.25	1.99 ± 0.02
ACUUGG	0.457 ± 0.11	1.898 ± 0.0091	0.649 ± 0.022	2 ± 0.049
UGAAAU	0.196 ± 0.11	1.81 ± 0.027	0.516 ± 0.39	1.97 ± 0.027
UGAAAG	0.184 ± 0.14	1.8081 ± 0.0016	0.436 ± 0.3	1.98 ± 0.031
UGAAAC	0.4232 ± 0.0017	1.946 ± 0.0065	0.578 ± 0.21	2 ± 0.042
UGAAAA	0.648 ± 0.13	1.98 ± 0.021	0.692 ± 0.22	1.992 ± 0.019
ACUAAA	0.538 ± 0.18	1.9903 ± 0.0016	0.483 ± 0.097	2.022 ± 0.018
ACUAAC	0.18 ± 0.0049	2 ± 0.017	0.412 ± 0.046	2.01 ± 0.045
ACUAAG	0.437 ± 0.1	1.924 ± 0.018	0.751 ± 0.14	2 ± 0.037
CGAACC	0.4 ± 0.15	2.059 ± 0.013	0.315 ± 0.15	2.02 ± 0.054
CGAACA	0.317 ± 0.096	1.981 ± 0.0064	0.446 ± 0.21	1.985 ± 0.0071
ACGUGA	0.282 ± 0.011	1.958 ± 0.012	0.173 ± 0.2	2.025 ± 0.015
ACUCAA	0.314 ± 0.088	1.973 ± 0.015	0.365 ± 0.012	2 ± 0.028
ACUCAU	0.258 ± 0.022	2.013 ± 0.0051	0.187 ± 0.11	2.04 ± 0.029
GGAAAC	0.359 ± 0.026	2.021 ± 0.0084	0.243 ± 0.22	2.0107 ± 0.00078

Variant	FACS-Seq fitted mean (log10) [1]	normalized RNA/DNA level without ligand (log10) [2]	FACS-Seq fitted mean (log10) [3]	normalized RNA/DNA level with ligand (log10) [4]
GGAAAG	0.253 ± 0.061	1.955 ± 0.0027	0.123 ± 0.011	2.02 ± 0.041
GGAAAA	0.526 ± 0.051	1.983 ± 0.011	0.455 ± 0.15	2.04 ± 0.041
GGAGGC	-0.315 ± 0.075	1.936 ± 0.0065	-0.531 ± 0.17	2.0118 ± 0.0015
GGAGGU	0.445 ± 0.085	2.02 ± 0.033	0.592 ± 0.05	2.05 ± 0.07
UCGGAA	0.527 ± 0.079	1.897 ± 0.0085	0.24 ± 0.14	1.99 ± 0.037
UCGGAG	0.429 ± 0.14	1.74 ± 0.019	0.837 ± 0.14	1.972 ± 0.0045
UCGGAU	0.33 ± 0.067	1.946 ± 0.019	0.517 ± 0.14	2.01 ± 0.024
UCGUAC	0.373 ± 0.053	2.032 ± 0.019	0.343 ± 0.14	2.049 ± 0.0073
UCGUAA	-0.407 ± 0.028	1.937 ± 0.0094	-0.393 ± 0.27	2.007 ± 0.0097
CCUAGC	0.339 ± 0.022	2.075 ± 0.011	0.3 ± 0.46	2.053 ± 0.006
GGAUAA	0.686 ± 0.051	1.9974 ± 0.00055	0.655 ± 0.074	2.03 ± 0.026
ACUGAG	0.198 ± 0.044	1.7978 ± 0.0006	0.446 ± 0.082	2 ± 0.023
ACUGAA	0.265 ± 0.035	1.953 ± 0.0034	0.375 ± 0.18	1.981 ± 0.0063
UGAACG	0.174 ± 0.17	1.83 ± 0.021	0.296 ± 0.022	2 ± 0.035
UGAACU	0.534 ± 0.077	1.988 ± 0.016	0.35 ± 0.14	2 ± 0.032
CGAGAA	0.311 ± 0.059	1.9567 ± 0.0017	0.426 ± 0.19	2.01 ± 0.039
CGAAAA	0.189 ± 0.032	1.955 ± 0.014	0.493 ± 0.17	1.98 ± 0.022
CGAAAG	-0.0838 ± 0.12	1.9719 ± 0.00015	0.0563 ± 0.36	1.98 ± 0.027
AGACGC	0.389 ± 0.13	2.018 ± 0.016	0.336 ± 0.11	2.01 ± 0.042
AGACGA	-0.49 ± 0.11	1.99 ± 0.015	-0.617 ± 0.18	2.02 ± 0.03
UCUUAG	0.183 ± 0.18	1.86 ± 0.053	-0.141 ± 0.14	2.02 ± 0.019
ACUUAG	0.58 ± 0.02	1.93 ± 0.0033	0.402 ± 0.071	1.978 ± 0.0025
ACUUAA	-0.0941 ± 0.16	1.974 ± 0.011	-0.044 ± 0.31	1.98 ± 0.033
ACUUAC	0.478 ± 0.045	2.009 ± 0.0089	0.5359 ± 0.00057	2.016 ± 0.014

Variant	FACS-Seq fitted mean (log10) [1]	normalized RNA/DNA level without ligand (log10) [2]	FACS-Seq fitted mean (log10) [3]	normalized RNA/DNA level with ligand (log10) [4]
ACUUAU	0.328 ± 0.084	1.991 ± 0.0041	0.329 ± 0.12	2.02 ± 0.031
UCGGUG	-0.084 ± 0.14	1.817 ± 0.0011	0.096 ± 0.055	2 ± 0.03
UCGGUU	0.629 ± 0.068	2.033 ± 0.0021	0.695 ± 0.2	2.06 ± 0.023
ACGUAG	0.217 ± 0.032	1.912 ± 0.0036	0.598 ± 0.16	1.9927 ± 0.0014
ACGUAA	0.69 ± 0.24	1.962 ± 0.0024	0.689 ± 0.3	2.006 ± 0.0065
ACGGAU	0.261 ± 0.068	1.936 ± 0.017	0.344 ± 0.042	2.01 ± 0.037
GGACUA	0.287 ± 0.07	1.989 ± 0.0053	0.202 ± 0.044	1.97 ± 0.033
GCUACA	-0.313 ± 0.09	2.017 ± 0.018	-0.102 ± 0.14	2.03 ± 0.05
GCGGAG	0.2 ± 0.093	1.89 ± 0.022	0.18 ± 0.029	2.01 ± 0.051
GGAAUC	-0.317 ± 0.23	2.055 ± 0.0066	-0.244 ± 0.51	2.05 ± 0.023
GGAAUG	0.589 ± 0.011	1.973 ± 0.0085	0.668 ± 0.1	2.03 ± 0.029
GGAAUU	0.362 ± 0.1	2.046 ± 0.0046	0.236 ± 0.27	2.061 ± 0.016
UCUAAA	0.394 ± 0.046	1.977 ± 0.0068	0.483 ± 0.022	2.018 ± 0.017
ACUGUG	0.5433 ± 0.0045	1.853 ± 0.017	0.593 ± 0.12	2 ± 0.022
GCUGUU	0.356 ± 0.02	2.043 ± 0.0085	0.145 ± 0.17	2.04 ± 0.042
GCUAAU	0.513 ± 0.029	1.986 ± 0.0026	0.516 ± 0.027	2.02 ± 0.022
CCUUAU	0.278 ± 0.013	2.023 ± 0.0064	0.394 ± 0.22	2.05 ± 0.022
ACGGGA	0.247 ± 0.026	1.941 ± 0.0036	0.471 ± 0.17	2.01 ± 0.038
CGAAUA	0.314 ± 0.065	1.954 ± 0.0097	0.45 ± 0.14	1.978 ± 0.018
AGAUAA	0.0208 ± 0.12	1.96 ± 0.006	0.14 ± 0.2	1.981 ± 0.012
UGAUAC	0.272 ± 0.049	1.984 ± 0.019	0.128 ± 0.094	2 ± 0.044
UGAUAA	0.48 ± 0.24	1.926 ± 0.019	0.632 ± 0.35	2.004 ± 0.017
GCUCGU	0.5943 ± 0.0012	2.0305 ± 0.0014	0.851 ± 0.091	2.02 ± 0.037
